We go through three molecules from publication PMC9770967, “Native holdup (nHU) to measure binding affinities from cell extracts” (Science Advances, 2022).

Assay [1] deals with SNX27_PDZ. Description: nHU-MS, SNX27_PDZ bait, total Jurkat extracts, series 1. Particulars: for pKapp_HU_not_filtered: SNX27 bait, not filtered for significance; for FC_HU: SNX27 vs MBP control. The format is binding, human. How it is done:
The empty His6-AviTag-MBP-TEV vector was used to produce biotinylated MBP for control experiments. Proteins were coexpressed with BirA biotin ligase (PET21a-BirA, Addgene, no. 20857) in Escherichia coli BL21(DE3) cells. At isopropyl-β-D-thiogalactopyranoside (IPTG) induction (1 mM IPTG at 18°C overnight), 50 μM biotin was added to the media. Harvested cells were lysed in a buffer containing 50 mM tris (pH 7.5), 150 to 300 mM NaCl, 50 μM biotin, 2 mM β-mercaptoethanol, cOmplete EDTA-free protease inhibitor cocktail (Roche, Basel, Switzerland), 1% Triton X-100, and trace amount of deoxyribonuclease, ribonuclease, and lysozyme. Lysates were frozen at −20°C before further purification steps. Lysates were sonicated and centrifuged for clarification. Expressed proteins were captured on in-house prepacked Ni-IDA (Protino Ni-IDA Resin, Macherey-Nagel, Duren, Germany) columns and were washed with at least 10 column volumes of cold wash buffer [50 mM tris (pH 7.5), 150 mM NaCl, and 2 mM β-mercaptoethanol] before elution with 250 mM imidazole. The Ni elution was collected directly on a preequilibrated amylose column (amylose high flow resin, New England Biolabs, Ipswich, MA). Amylose column was washed with 5 column volumes of cold wash buffer before fractionated elution in a buffer containing 25 mM Hepes (pH 7.5), 150 mM NaCl, 1 mM TCEP, 10% glycerol, 5 mM maltose, and cOmplete EDTA-free protease inhibitor cocktail. The concentration of proteins was determined by their ultraviolet absorption at 280 nm before aliquots were snap-frozen in liquid nitrogen and stored at −80°C.
For saturating streptavidin resin with biotinylated peptides or biotin, 50 μl of streptavidin resin was mixed with biotin or peptide at 40 to 60 μM concentration in 6 to 6.5 resin volume for 60 min. To saturate streptavidin resin with biotinylated proteins, 50 μl of streptavidin resin (Streptavidin Sepharose High Performance, Cytiva) was mixed with biotinylated MBP or MBP-PDZ at 40 to 50 μM concentration in 20× resin volume for 60 min. After saturation, resins were washed a single time [10 resin volume, holdup buffer: 50 mM tris (pH 7.5), 300 mM NaCl, and 1 mM TCEP, 0.22-μm filtered] and were depleted with biotin (10 resin volume, 10 min, holdup buffer supplemented with 100 μM biotin). Last, resins were washed two times (10 resin volume, holdup buffer).
For single-point nHU experiments carried out at ~10 μM bait concentration, 50 μl of saturated streptavidin resin was mixed with 200 μl of cell lysate (2 mg/ml). Titration experiments were carried out by mixing control and bait-saturated resin and keeping the total resin volume constant; e.g., ~5 μM bait concentration can be achieved by mixing 25 μl of bait-saturated streptavidin resin with 25 μl of control resin and 200 μl of cell lysate (2 mg/ml). Control and bait-saturated resins were prepared in larger amounts, and a serial dilution was prepared with these presaturated resins to achieve different resin ratios.
Unless specified elswhere, the nHU mixture was incubated at 4°C for 2 hours. After the incubation ended, the resin was separated from the supernatant by a brief centrifugation (15 s, 2000 g). Then, half of the supernatant was removed by pipetting without any delay to avoid any resin contamination; e.g., 100 μl of supernatant is collected if 200 μl of cell lysate was used as analyte. Alternatively, the supernatant can be centrifuged an additional time to clarify it further, removing any possible resin contamination. In principle, the separation of the supernatant should be as fast as possible since any delay can perturb the equilibrium. […] Alternatively, the resin can be separated from the supernatant using filter plates (e.g., various products of Millipore, Burlington, MA) or spin columns (e.g., Pierce spin cups—cellulose acetate filter from Thermo Fisher Scientific, Waltham, MA) to achieve faster separation. […]

Assay [2] deals with SNX27_PDZ. Briefly: AP-MS control pull-down on leftover resin, SNX27_PDZ bait, total Jurkat extracts. Particulars: for FC_AP: SNX27 vs MBP. The format is binding, human. How it is done:
Leftover beads from nHU-MS experiments were washed three times immediately after the separation of the supernatant [10 resin volume in buffer containing 50 mM tris (pH 8.5), 150 mM NaCl, 1% Triton X-100, 10× cOmplete EDTA-free protease inhibitor cocktail, 2 mM EDTA, and 1 mM TCEP]. Then, the beads were washed two times [10 resin volume buffer containing 50 mM tris (pH 8.5), 150 mM NaCl, and 1 mM TCEP]. Last, captured protein was eluted from the resin in two steps, and the eluted fractions were pooled. For each elution, the beads were incubated for 30 min with three resin volume buffer containing 20 mM tris (pH 8.5), 100 mM NaCl, 500 μM TCEP, and 8 M urea. Between each step, the beads were separated by mild centrifugation, and the supernatant was removed by gentle pipetting.
The nHU samples were precipitated with trichloroacetic acid (TCA) 20% overnight at 4°C and centrifuged at 14,000 rpm for 10 min at 4°C. The protein pellets were washed twice with 1 ml of cold acetone and air-dried. The protein extracts were solubilized in 8 M urea, reduced with 5 mM TCEP for 30 min, and alkylated with 10 mM iodoacetamide for 30 min in the dark. Double digestion was performed at 37°C with 500 ng of endoproteinase Lys-C (Wako, Richmond, USA) for 4 hours, followed by fourfold dilution and an overnight digestion with 500 ng of trypsin (Promega, Charbonnieres les Bains, France). Peptide mixtures were then desalted on a C18 spin-column and dried on a speed vacuum.
Samples were analyzed using an Ultimate 3000 nano-RSLC coupled in line via a nano-electrospray ionization source, with an LTQ-Orbitrap ELITE mass spectrometer (Thermo Fisher Scientific, San Jose, CA) or with the Orbitrap Exploris 480 mass spectrometer (Thermo Fisher Scientific, Bremen, Germany) equipped with a high field asymmetric ion mobility spectrometry (FAIMS) module. Peptide mixtures were injected in 0.1% trifluoroacetic acid on a C18 Acclaim PepMap100 trap column [75 μm inner diameter (ID) × 2 cm, 3 μm, 100 Å, Thermo Fisher Scientific] for 3 min at 5 μl/min with 2% acetonitrile (ACN) and 0.1% formic acid (FA) in H2O and then separated on a C18 Acclaim PepMap100 nano-column (75 μm ID × 50 cm, 2.6 μm, 150 Å, Thermo Fisher Scientific) at 300 nl/min and 40°C with a 90-min linear gradient from 5 to 30% buffer B (A: 0.1% FA in H2O/B: 80% ACN, 0.1% FA in H2O) and regeneration at 5% B. Spray voltage was set to 2.1 kV and heated capillary temperature was set to 280°C.
For the Orbitrap Elite, the mass spectrometer was operated in positive ionization mode in data-dependent mode with survey scans from mass/charge ratio (m/z) 350 to 1500 acquired in the Orbitrap at a resolution of 120,000 at m/z 400. The 20 most intense peaks from survey scans were selected for further fragmentation in the linear ion trap with an isolation window of 2.0 Da and were fragmented by collision-induced dissociation (CID) with a normalized collision energy of 35% (TOP 20 CID method). Unassigned and single-charged states were excluded from fragmentation. The ion target value for the survey scans (in the Orbitrap) and the MS2 mode (in the linear ion trap) were set to 1E6 and 5E3, respectively, and the maximum injection time was set to 100 ms for both scan modes. Dynamic exclusion was set to 20 s after one repeat count with mass width at ±10 parts per million (ppm).
Proteins were identified by database search using SequestHT (Thermo Fisher Scientific) with Proteome Discoverer 2.4 software (PD2.4, Thermo Fisher Scientific) on the human FASTA database downloaded from UniProt (reviewed, release 2021_06_03, 20380 entries, https://uniprot.org/, complemented with sequences of likely contaminants, such as MBP, streptavidin, or trypsin). Precursor and fragment mass tolerances were set at 7 ppm and 0.6 Da, respectively, and up to two missed cleavages were allowed. […]

Setting [3] is: nHU-MS, SNX27/MBP, total Jurkat extract, sheet "SNX27&Jurkat".
The mark [4] stands for this setting: nHU-MS, SNX27 bait vs MBP control, total Jurkat extract, sheet "SNX27&Jurkat".
Where [5] appears, read: nHU-MS, total Jurkat extract, sheet "SNX27&Jurkat".
The mark [6] stands for this setting: AP-MS control pull-down, SNX27/MBP, total Jurkat extract.
Setting [7] is: AP-MS control pull-down, total Jurkat extract.
[8] abbreviates: Jurkat, series 1, leftover resin, n = 6.

B1: RAE1 (protein, UniProt P78406 1-368, looked up)
mRNA export factor RAE1: MSLFGTTSGFGTSGTSMFGSATTDNHNPMKDIEVTSSPDDSIGCLSFSPPTLPGNFLIAGSWANDVRCWEVQDSGQTIPKAQQMHTGPVLDVCWSDDGSKVFTASCDKTAKMWDLSSNQAIQIAQHDAPVKTIHWIKAPNYSCVMTGSWDKTLKFWDTRSSNPMMVLQLPERCYCADVIYPMAVVATAERGLIVYQLENQPSEFRRIESPLKHQHRCVAIFKDKQNKPTGFALGSIEGRVAIHYINPPNPAKDNFTFKCHRSNGTNTSAPQDIYAVNGIAFHPVHGTLATVGSDGRFSFWDKDARTKLKTSEQLDQPISACCFNHNGNIFAYASSYDWSKGHEFYNPQKKNYIFLRNAAEELKPRNKK
Consider B1, for which the Ratio_HU in assay [1] (setting [3]) was determined as 0.6404. The molecule also came in with a BI_HU in assay [1] (setting [4]) of 0.3596. Besides, the pKapp_HU_not_filtered in assay [1] (nHU-MS, total Jurkat extract) came out at 4.751. Further, the FC_HU in assay [1] (setting [5]) is given as -0.643. The molecule also showed a Ratio_AP in assay [2] (setting [6]) of 3.111. Besides, the FC_AP in assay [2] (setting [7]) stood at 1.637.

B2: DARS1: Aspartate--tRNA ligase, cytoplasmic (protein, UniProt P14868 1-501, looked up)
Aspartate--tRNA ligase, …: MPSASASRKSQEKPREIMDAAEDYAKERYGISSMIQSQEKPDRVLVRVRDLTIQKADEVVWVRARVHTSRAKGKQCFLVLRQQQFNVQALVAVGDHASKQMVKFAANINKESIVDVEGVVRKVNQKIGSCTQQDVELHVQKIYVISLAEPRLPLQLDDAVRPEAEGEEEGRATVNQDTRLDNRVIDLRTSTSQAVFRLQSGICHLFRETLINKGFVEIQTPKIISAASEGGANVFTVSYFKNNAYLAQSPQLYKQMCICADFEKVFSIGPVFRAEDSNTHRHLTEFVGLDIEMAFNYHYHEVMEEIADTMVQIFKGLQERFQTEIQTVNKQFPCEPFKFLEPTLRLEYCEALAMLREAGVEMGDEDDLSTPNEKLLGHLVKEKYDTDFYILDKYPLAVRPFYTMPDPRNPKQSNSYDMFMRGEEILSGAQRIHDPQLLTERALHHGIDLEKIKAYIDSFRFGAPPHAGGGIGLERVTMLFLGLHNVRQTSMFPRDPKRLTP
Consider B2, for which, in assay [1] (Jurkat, series 1, n = 6), the BI_HU stood at 0.3534, the “FC_HU (log2 fold change)” value is given as -0.629 and the Ratio_HU was 0.6466. The pKapp_significant_binders_HU in assay [1] (apparent, Eq. 2, Jurkat, series 1, significant binders (1 σ, P < 0.05)) amounted to 4.739. Moreover, in assay [2] (setting [8]), the “FC_AP (log2 fold change)” value was determined as 3.29 and the Ratio_AP turned out to be 9.779.

B3: BYSL (protein, UniProt Q13895 1-437, looked up)
Bystin: MPKFKAARGVGGQEKHAPLADQILAGNAVRAGVREKRRGRGTGEAEEEYVGPRLSRRILQQARQQQEELEAEHGTGDKPAAPRERTTRLGPRMPQDGSDDEDEEWPTLEKAATMTAAGHHAEVVVDPEDERAIEMFMNKNPPARRTLADIIMEKLTEKQTEVETVMSEVSGFPMPQLDPRVLEVYRGVREVLSKYRSGKLPKAFKIIPALSNWEQILYVTEPEAWTAAAMYQATRIFASNLKERMAQRFYNLVLLPRVRDDVAEYKRLNFHLYMALKKALFKPGAWFKGILIPLCESGTCTLREAIIVGSIITKCSIPVLHSSAAMLKIAEMEYSGANSIFLRLLLDKKYALPYRVLDALVFHFLGFRTEKRELPVLWHQCLLTLVQRYKADLATDQKEALLELLRLQPHPQLSPEIRRELQSAVPRDVEDVPITVE
In assay [1] (setting [3]), B3 came in with a Ratio_HU of 0.6423. In assay [1] (setting [4]), this molecule had a BI_HU of 0.3577. Also, the pKapp_HU_not_filtered in assay [1] (nHU-MS, total Jurkat extract) stood at 4.747. The FC_HU in assay [1] (setting [5]) is listed as -0.6386. In assay [2] (setting [6]), the Ratio_AP is reported as 9.097. The molecule further came in with an FC_AP in assay [2] (setting [7]) of 3.185. The BINDER_AP result in assay [2] (AP-MS control pull-down, total Jurkat extract, BINDS / DOES NOT BIND) is “DOES NOT BIND”.
